Reference: IntAct's records for PubMed 19703395

B1: Transposon Tn7 transposition protein TnsE (Escherichia coli), P05845 (parent)
chain: MVRLATFNDNVQVVHIGHLFRNSGHKEWRIFVWFNPMQERKWTRFTHLPLLSRAKVVNSTTKQINKADRVIEFEASDLQRAKIIDFPNLSSFASVRNKDGAQSSFIYEAETPYSKTRYHIPQLELARSLFLINSYFCRSCLSSTALQQEFDVQYEVERDHLEIRILPSSSFPKGALEQSAVVQLLVWLFSDQDVMDSYESIFRHYQQNREIKNGVESWCFSFDPPPMQGWKLHVKGRSSNEDKDYLVEEIVGLEINAMLPSTTAISHASFQEKEAGDGSTQHIAVSTESVVDDEHLQLDDEETANIDTDTRVIEAEPTWISFSRPSRIEKSRRARKSSQTILEKEEATTSENSNLVSTDEPHLGGVLAAADVGGKQDATNYNSIFANRFAAFDELLSILKTKFACRVLFEETLVLPKVGRSRLHLCKDGSPRVIKAVGVQRNGSEFVLLEVDASDGVKMLSTKVLSGVDSETWRNDFEKIRRGVVKSSLNWPNSLFDQLYGQDGHRGVNHPKGLGELQVSREDMEGWAERVVREQFTH

Variants of: B1
Conditions: with dpo3b_ecoli dnaN

Effect of a mutation on the interaction, decreasing interaction:
MVRLATFNDNVQVVHIGHLFRNSGHKEWRIFVWFNPMQERKWTRFTHLPLLSRAKVVNSTTKQINKADRVIEFEASDLQRAKIIDFPNLSSFASVRNKDGAQSSFIYEAETPYSKTRYHIPQLELARSLFAINSYFCRSCLSSTALQQEFDVQYEVERDHLEIRILPSSSFPKGALEQSAVVQLLVWLFSDQDVMDSYESIFRHYQQNREIKNGVESWCFSFDPPPMQGWKLHVKGRSSNEDKDYLVEEIVGLEINAMLPSTTAISHASFQEKEAGDGSTQHIAVSTESVVDDEHLQLDDEETANIDTDTRVIEAEPTWISFSRPSRIEKSRRARKSSQTILEKEEATTSENSNLVSTDEPHLGGVLAAADVGGKQDATNYNSIFANRFAAFDELLSILKTKFACRVLFEETLVLPKVGRSRLHLCKDGSPRVIKAVGVQRNGSEFVLLEVDASDGVKMLSTKVLSGVDSETWRNDFEKIRRGVVKSSLNWPNSLFDQLYGQDGHRGVNHPKGLGELQVSREDMEGWAERVVREQFTH [L131A]
MVRLATFNDNVQVVHIGHLFRNSGHKEWRIFVWFNPMQERKWTRFTHLPLLSRAKVVNSTTKQINKADRVIEFEASDLQRAKIIDFPNLSSFASVRNKDGAQSSFIYEAETPYSKTRYHIPQLEAARSLFLINSYFCRSCLSSTALQQEFDVQYEVERDHLEIRILPSSSFPKGALEQSAVVQLLVWLFSDQDVMDSYESIFRHYQQNREIKNGVESWCFSFDPPPMQGWKLHVKGRSSNEDKDYLVEEIVGLEINAMLPSTTAISHASFQEKEAGDGSTQHIAVSTESVVDDEHLQLDDEETANIDTDTRVIEAEPTWISFSRPSRIEKSRRARKSSQTILEKEEATTSENSNLVSTDEPHLGGVLAAADVGGKQDATNYNSIFANRFAAFDELLSILKTKFACRVLFEETLVLPKVGRSRLHLCKDGSPRVIKAVGVQRNGSEFVLLEVDASDGVKMLSTKVLSGVDSETWRNDFEKIRRGVVKSSLNWPNSLFDQLYGQDGHRGVNHPKGLGELQVSREDMEGWAERVVREQFTH [L125A]
MVRLATFNDNVQVVHIGHLFRNSGHKEWRIFVWFNPMQERKWTRFTHLPLLSRAKVVNSTTKQINKADRVIEFEASDLQRAKIIDFPNLSSFASVRNKDGAQSSFIYEAETPYSKTRYHIPQLELARSLALINSYFCRSCLSSTALQQEFDVQYEVERDHLEIRILPSSSFPKGALEQSAVVQLLVWLFSDQDVMDSYESIFRHYQQNREIKNGVESWCFSFDPPPMQGWKLHVKGRSSNEDKDYLVEEIVGLEINAMLPSTTAISHASFQEKEAGDGSTQHIAVSTESVVDDEHLQLDDEETANIDTDTRVIEAEPTWISFSRPSRIEKSRRARKSSQTILEKEEATTSENSNLVSTDEPHLGGVLAAADVGGKQDATNYNSIFANRFAAFDELLSILKTKFACRVLFEETLVLPKVGRSRLHLCKDGSPRVIKAVGVQRNGSEFVLLEVDASDGVKMLSTKVLSGVDSETWRNDFEKIRRGVVKSSLNWPNSLFDQLYGQDGHRGVNHPKGLGELQVSREDMEGWAERVVREQFTH [F130A]
MVRLATFNDNVQVVHIGHLFRNSGHKEWRIFVWFNPMQERKWTRFTHLPLLSRAKVVNSTTKQINKADRVIEFEASDLQRAKIIDFPNLSSFASVRNKDGAQSSFIYEAETPYSKTRYHIPQAELARSLFLINSYFCRSCLSSTALQQEFDVQYEVERDHLEIRILPSSSFPKGALEQSAVVQLLVWLFSDQDVMDSYESIFRHYQQNREIKNGVESWCFSFDPPPMQGWKLHVKGRSSNEDKDYLVEEIVGLEINAMLPSTTAISHASFQEKEAGDGSTQHIAVSTESVVDDEHLQLDDEETANIDTDTRVIEAEPTWISFSRPSRIEKSRRARKSSQTILEKEEATTSENSNLVSTDEPHLGGVLAAADVGGKQDATNYNSIFANRFAAFDELLSILKTKFACRVLFEETLVLPKVGRSRLHLCKDGSPRVIKAVGVQRNGSEFVLLEVDASDGVKMLSTKVLSGVDSETWRNDFEKIRRGVVKSSLNWPNSLFDQLYGQDGHRGVNHPKGLGELQVSREDMEGWAERVVREQFTH [L123A]
MVRLATFNDNVQVVHIGHLFRNSGHKEWRIFVWFNPMQERKWTRFTHLPLLSRAKVVNSTTKQINKADRVIEFEASDLQRAKIIDFPNLSSFASVRNKDGAQSSFIYEAETPYSKTRYHIPALELARSLFLINSYFCRSCLSSTALQQEFDVQYEVERDHLEIRILPSSSFPKGALEQSAVVQLLVWLFSDQDVMDSYESIFRHYQQNREIKNGVESWCFSFDPPPMQGWKLHVKGRSSNEDKDYLVEEIVGLEINAMLPSTTAISHASFQEKEAGDGSTQHIAVSTESVVDDEHLQLDDEETANIDTDTRVIEAEPTWISFSRPSRIEKSRRARKSSQTILEKEEATTSENSNLVSTDEPHLGGVLAAADVGGKQDATNYNSIFANRFAAFDELLSILKTKFACRVLFEETLVLPKVGRSRLHLCKDGSPRVIKAVGVQRNGSEFVLLEVDASDGVKMLSTKVLSGVDSETWRNDFEKIRRGVVKSSLNWPNSLFDQLYGQDGHRGVNHPKGLGELQVSREDMEGWAERVVREQFTH [Q122A]
MVRLATFNDNVQVVHIGHLFRNSGHKEWRIFVWFNPMQERKWTRFTHLPLLSRAKVVNSTTKQINKADRVIEFEASDLQRAKIIDFPNLSSFASVRNKDGAQSSFIYEAETPYSKTRYHIPQLELARSAFLINSYFCRSCLSSTALQQEFDVQYEVERDHLEIRILPSSSFPKGALEQSAVVQLLVWLFSDQDVMDSYESIFRHYQQNREIKNGVESWCFSFDPPPMQGWKLHVKGRSSNEDKDYLVEEIVGLEINAMLPSTTAISHASFQEKEAGDGSTQHIAVSTESVVDDEHLQLDDEETANIDTDTRVIEAEPTWISFSRPSRIEKSRRARKSSQTILEKEEATTSENSNLVSTDEPHLGGVLAAADVGGKQDATNYNSIFANRFAAFDELLSILKTKFACRVLFEETLVLPKVGRSRLHLCKDGSPRVIKAVGVQRNGSEFVLLEVDASDGVKMLSTKVLSGVDSETWRNDFEKIRRGVVKSSLNWPNSLFDQLYGQDGHRGVNHPKGLGELQVSREDMEGWAERVVREQFTH [L129A]
